{"source": "paper PMC6445550", "system": "CCCCCCCCCCCCCCCC(=O)SCCNC(=O)CCNC(=O)[C@H](O)C(C)(C)COP(=O)(O)OP(=O)(O)OC[C@H]1O[C@@H](n2cnc3c(N)ncnc32)[C@H](O)[C@@H]1OP(=O)(O)O", "assay": "purified protein"}
{"substance": "zDHHC9 (Homo sapiens)", "values": [{"measurement": "Km", "value": "45 ± 4", "unit": "µM"}]}
